From US7556938B1, “Nucleic acids encoding potassium channel interactors” (Millennium Pharmaceuticals, Inc., priority 1998, dated 2009)

Key:
rKv4.2 = molecular target: T1, rKv4.2 (Rattus norvegicus, UniProt Q63881); test: Patch-clamp of Kv4.2 currents in CHO cells coexpressing KChIPs; type: cell-based
T1 construct: expressed in transfected cells; host or cells: CHO cells, transient transfection with GFP co-transfected
T1 sequence (Q63881 1-630): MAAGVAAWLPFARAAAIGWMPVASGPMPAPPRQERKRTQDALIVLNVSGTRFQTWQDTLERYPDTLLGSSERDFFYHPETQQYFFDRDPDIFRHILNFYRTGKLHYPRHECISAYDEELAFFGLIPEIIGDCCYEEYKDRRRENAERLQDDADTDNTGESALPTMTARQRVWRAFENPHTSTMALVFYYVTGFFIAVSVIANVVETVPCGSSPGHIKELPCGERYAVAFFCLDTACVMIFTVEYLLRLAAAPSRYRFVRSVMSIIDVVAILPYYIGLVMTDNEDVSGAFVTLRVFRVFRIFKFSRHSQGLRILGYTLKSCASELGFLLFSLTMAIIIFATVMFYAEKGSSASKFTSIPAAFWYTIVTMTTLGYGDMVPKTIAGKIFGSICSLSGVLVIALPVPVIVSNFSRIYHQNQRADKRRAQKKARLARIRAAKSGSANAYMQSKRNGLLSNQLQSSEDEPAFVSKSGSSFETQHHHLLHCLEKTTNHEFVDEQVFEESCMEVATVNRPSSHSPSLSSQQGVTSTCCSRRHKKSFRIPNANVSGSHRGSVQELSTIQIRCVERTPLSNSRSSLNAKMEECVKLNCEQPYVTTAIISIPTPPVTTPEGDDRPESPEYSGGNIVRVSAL
Procedure: HEK 293 and CHO cells were used for recordings 1-3 days after a transient transfection. Whole-cell currents were recorded from cells expressing GFP, identified by their green fluorescence. […] After Gigaseal and ruptured whole-cell configuration access, resistance was less than 10 MOhms. Whole-cell bath solutions were made from a 10× Hank's balanced salt solution (GibcoBRL) with the following final concentration (in mM): 138 NaCl, 5.4 KCl, 1.3 MgCl2, 1.3 CaCl2, 5.5 D-Glukos and 10 HEPES, pH 7.4. The intracellular electrode solution consisted of (in mM) 140 KCl, 10 HEPES, 10 EGTA, 0.5 MgCl2, pH 7.3. All chemicals were from Sigma (St. Louis, Mo.) or Fisher Scientific (Houston, Tex.). Membrane currents were recorded using a EPC9 patch-clamp amplifier (HEKA, Germany). Data were analyzed using Matlab (Natick, Ma), and leak subtracted if necessary. All experiments were done at room temperature.
Because PCIPs, e.g., KChIP1 (1v), KChIP2 (9ql), and KChIP3 (p19), colocalize and coassociate with Kv4 α-subunits in brain, another critical question was to determine whether these PCIPs alter the conductance properties of Kv4 channels. To address this issue, Kv4.2 and Kv4.3 were expressed alone and in combination with individual PCIPs. CHO cells were transiently-transfected with cDNA using the DOTAP lipofection method as described by the manufacturer (Boehringer Mannheim, Inc.). Transfected cells were identified by cotransfecting enhanced GFP along with the genes of interest and subsequently determining if the cells contained green GFP fluorescence. Currents in CHO cells were measured using the patch-clamp technique (Hamill et al. 1981. Pfluegers Arch. 391: 85-100).
First, the amplitude of the Kv4.2 current increased approximately 7.5 fold in the presence of KChIP1 (amplitude of Kv4.2 alone=0.60+/−0.096 nA/cell; Kv4.2+KChIP1=4.5+/−0.55 nA/cell). […] Finally, the kinetics of Kv4.2 inactivation slowed considerably when Kv4.2 was coexpressed with KChIP1 (inactivation time constant of Kv4.2 alone=28.2+/−2.6 ms; Kv4.2+KChIP1=104.1+/−10.4 ms), while channels recovered from inactivation much more rapidly in cells expressing both Kv4.2 and KChIP1 (recovery tau=53.6+/−7.6 ms) versus cells expressing Kv4.2 alone (recovery tau=272.2+/−26.1 ms).

hKv1.4 = hKv1.4 (Homo sapiens, UniProt P22459); test: Two-electrode voltage clamp of Kv1.4 currents in Xenopus oocytes coexpressing 1v; type: cell-based
Procedure: Frogs underwent no more than two surgeries and surgeries were performed by well established techniques. Frogs were anesthetized with ice. Total cRNA (1-10 ng) was injected into stage IV Xenopus oocytes that were harvested the previous day. The Xenopus oocytes were incubated in ND96 containing (in mM) 96 NaCl, 2 KCl, 1.8 CaCl2, 1 MgCl2, 5 HEPES, pH 7.6, plus (Gentamycin 50 μg/ml) at 18° C. Xenopus oocytes were studied 3-7 days after injection. The two-electrode voltage-clamp recordings were performed in ND96 solution using a TURBO TEC 03 Clamp Amplifier (ALA Scientific Instruments, Westbury, N.Y.). Both electrodes were filled with 3 M KCl and had electrode resistances ranging from 0.2-1 MOhm. The current signals were filtered at 1000 Hz before transferred on a PC (Gateway, Calif.) using the PULSE software (HEKA, Germany).
To investigate whether the modulatory effects of these KChIPs are specific for Kv4 channels, KChIP1 was coexpressed with Kv1.4 and Kv2.1 in Xenopus oocytes. Xenopus oocytes were injected with 1-3 ng/oocyte of cRNA which was prepared using standard in vitro transcription techniques (Sambrook et al. 1989. Molecular Cloning: a laboratory manual, Cold Spring Harbor Press). Currents in Xenopus oocytes were measured with a two-electrode voltage clamp. […] As a final control for the KChIP effects and to verify that the KChIPs' effects on Kv4 currents are independent of expression system, the above kinetic analyses were repeated after expressing Kv4.3 and KChIP mRNAs in Xenopus oocytes. The effects KChIP1 on for Kv4.3 in the Xenopus oocyte system were strikingly similar to those on Kv4.2 in CHO cells (Table 1).

[1] = rKv4.2 coexpressed with the KChIP, at 50 mV

Sequence of hKv1.4 (P22459 whole entry): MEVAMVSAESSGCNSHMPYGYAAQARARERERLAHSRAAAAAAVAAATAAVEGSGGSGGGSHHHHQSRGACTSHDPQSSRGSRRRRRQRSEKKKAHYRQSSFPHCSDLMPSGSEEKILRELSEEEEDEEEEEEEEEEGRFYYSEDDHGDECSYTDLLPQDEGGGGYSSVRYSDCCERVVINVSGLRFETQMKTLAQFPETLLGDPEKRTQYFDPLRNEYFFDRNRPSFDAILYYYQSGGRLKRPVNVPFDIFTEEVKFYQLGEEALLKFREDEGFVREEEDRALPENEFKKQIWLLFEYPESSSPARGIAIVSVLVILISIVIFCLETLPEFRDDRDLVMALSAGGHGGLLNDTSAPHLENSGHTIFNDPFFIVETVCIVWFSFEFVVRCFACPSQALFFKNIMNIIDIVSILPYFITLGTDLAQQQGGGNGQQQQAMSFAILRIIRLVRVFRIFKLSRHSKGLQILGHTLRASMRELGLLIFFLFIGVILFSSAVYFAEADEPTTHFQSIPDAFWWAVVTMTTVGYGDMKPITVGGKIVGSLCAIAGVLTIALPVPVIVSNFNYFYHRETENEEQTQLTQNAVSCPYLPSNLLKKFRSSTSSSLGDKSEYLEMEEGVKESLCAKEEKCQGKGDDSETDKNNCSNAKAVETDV

activation V1/2 (rKv4.2; Kv4.2 coexpressed with KChIP1): −12.1+/−1.4 mV | Inactivation time constant (ms, at 50 mV) (rKv4.2; [1]): 104.1 ± 10.4 ms | Peak Current (nA/cell at 50 MV) (rKv4.2; [1]): 4.5+/−0.55 nA/cell | Peak Current Density (pA/pF at 50 mV) (rKv4.2; [1]): 306.9+/−57.9 pA/pF | fold increase of Kv4.2 current amplitude (rKv4.2; versus Kv4.2 alone): approximately 7.5 fold | fold increase of Kv4.2 current density (rKv4.2; versus Kv4.2 alone): 12 fold | effect on Kv1.4 currents (hKv1.4): did not appear to have any effect | Activation V1/2 (mV) (hKv1.4; hKv1.4 + 1v): −20.9 mV | Steady-state Inactivation V1/2 (mV) (hKv1.4; hKv1.4 + 1v): −47.5 mV | Inactivation time constant (ms, at 50 mV) (hKv1.4; hKv1.4 + 1v, at 50 mV): 58.2 ± 6.6 ms | Peak Current (μA/cell at 50 MV) (hKv1.4; hKv1.4 + 1v, at 50 mV): 6.5 ± 0.64 μA/cell
B1: KChIP1: Potassium channel interacting protein 1v, a Ca2+-binding protein that binds and modulates Kv4 channels (protein)
chain: MPARVLLAYPGTEMLTQGESEGLQTLGIVVVLCSSLKLLHYLGLIDLSDDKIEDDLEMTMVCHRPEGLEQLEAQTNFTKRELQVLYRGFKNECPSGVVNEETFKQIYAQFFPHGDASTYAHYLFNAFDTTQTGSVKFEDFVTALSILLRGTVHEKLRWTFNLYDINKDGYINKEEMMDIVKAIYDMMGKYTYPVLKEDTPRQHVDVFFQKMDKNKDGIVTLDEFLESCQEDDNIMRSLQLFQNVM
